Data from US12077763B2, “RNA-based control of powdery mildew” (Greenlight Biosciences, Inc., priority 2021, dated 2024).

Test system: E. necator
Assay: Leaf disc assay, dry inoculum (settling tower), decrease in disease severity / hyphal growth (Example 2)
Details: decrease in disease severity (hyphal growth) relative to untreated control, value ± SE; for % decrease =/− SE TP1: time point 1 (untreated control hyphal growth ≥50%); for % decrease =/− SE TP2: time point 2

B1: GS1842: dsRNA trigger SEQ ID NO 130; gene target AP-1 complex subunit gamma-1 (nucleic acid)
chain: GCCAATGCCTTGAGCGTCTGAACAAGACTTCCAGTGAGTGGTCTAAACTTCTCTACTATATTCTCTTCACCTTCTTCATCAGCTTCTATGTCGGCCTCGCAAAGGCTAGTGACAAGTGTCAAGCCACAAAGGAGAACTCCATGATTTCGATCTGAAATAAGTGTTTCTGCTTTTTCGAAGAAATGCTCTTGAAGATCTGGCACTTTCTTGCAAATACGCATAGCACATAGAGCAGCCTTCTTACGAATATATGGGTTTGCTGTGGAAAGGAGATTTTCTATCTCTGGAAAGAGATCTCTTGACATTTCGATTGATGCGATGTTGCCTAGCGTACAGAGGGCTAGTCCGACTATGTATTGATTAGAGTGATTGAGATCGTTCTTTAAGGAGTTTGTAACTAAGGTAAGAACCTCTTGATTTTCGTCTAAAAGCAACATGGTCCCTAAGTAACCAAGGCGTTTGTCGGCGAAACGAGGAGACGCAAGTAATTTAAGGCATTCTATCTGGCCAAAGTGGGTTCTTTCCCCAAGTGTGAAGAGATATAACAACTTTGCAACGTTATTACGTCTGACATTG
  % decrease =/− SE TP1: 6 ± 7%

B2: GS1834: dsRNA trigger SEQ ID NO 189; gene target Tubulin beta-2 chain (nucleic acid)
DNA: CTCGTCCATTCCTTCTCCAGTATACCAATGTAAGAAAGCTTTTCTTCTAAACATAGCTGTGAATTGATCCCCAACGCGCTTAAAGAGTTCTTGAATGGAAGTGGAGTTTCCTACAAATGTAGATGACATCTTAAGACCACGAGGTGGAATAGAGCAGAGTGCGGTTTGTACATTATTAGGGATCCACTCGACAAAATATGCAGAGTTCTTATTTTGTACATTGCGCATTTGGTCCTCTACTTCTTTCATTGATACCTTACCTCGAAATATTGCTGAACATGTTAAATAGCGCCCGTTTCGGAAATCAGACGCTGCCATCATATTTTTGGGGTCGTACATTTGCTGAGTCAACTCGGGAACAGTAACTGCGCGGAAAGAGTGGGCACCGCGACTTGTTAGAGGAGCAAATCCAACCATAAAAAAATGAAGACGAGGAAATGGAACCATGTTAACTGCTAACTTTCGAAGATCTGAGTTGAGTTGACCTGGGAAACGAAGACATGTTGTTACACCTGACATGACTGCAGATACCAAATGATTCAAATCACCATATGATGGGTTTGAAAGCTTTAAAGTTCTCATACATATTT
  % decrease =/− SE TP1: 8 ± 4%
  % decrease =/− SE TP2: 15 ± 6%

B3: GS1843: dsRNA trigger SEQ ID NO 184; gene target Ubiquitin-like protein SMT3 (nucleic acid)
chain: ATAAACCTGCCTTAGATACTAAATCAGGAGTTGGCGTTTTATGGGATTCTATTAGAGTTGTAAATTTCAAAGATACTTTGATTGGATTTTCTTAGATTAACCTCGACGAGAATCGATTTTCTAGATTTTTGGCTAAATCATACGAATTCAAATTTTCTTAGTAAATTGGACAATGCGCGCCGTAAACATATCGGGATGAAATTTTTTAATAATAAAATCAATTGAAAATAATAAATTTATATCCTATTTAATCACCGCCAACAAGAAGTTCGTTTTCCTTACCTACCTAGAATTAGTTTTTAGATATCGTTCGATGTTTCGTGAATTTCAAATCCAGATGTTGCCGCCGATTTGTTCTTGATGCACCTCTAGCGTATCTCCATCTGCCATATCGAGAAACTCAGGACTATCAGTTTGTTGAACACGACTCCCTTCAAATAAGAATCGAACAGAAGAAAGTGATTTCCCTTGCCTCTCACAGAACGCGTCCATCAATTTCTTAAGTGGTGTTGTTCGTTTAATTTTGAAGAAGACTTCATTATTGTTATCTGTAACCTTGATATTTAAATGTTCA
  % decrease =/− SE TP1: 20 ± 5%
  % decrease =/− SE TP2: 16 ± 8%

B4: GS1835: dsRNA trigger SEQ ID NO 159; gene target Probable glutamine--fructose-6-phosphate aminotransferase [isomerizing] (nucleic acid)
DNA: CCGATGACAAGGGGAGATCCTTTTCTTGCCGCAATTACTTCATGGGGATAATGGACTGATTTTAGTAGAAGTCCAAATGCTCCTTGCAGCTCCTTGATGACGGCCTTAGCTAAGTCCGTAAAAGTAATTGTTGGGTGCTGGTCATATATATACTTAGCAAGCTTGGCAATACACTCAGTATCAGTCTCTGTCTCAAATTTATGGCCCTTTGAGATAAGTAGGGTTTTGAGCTCTTTATAGTTTATTATGATTCCATTATGAACAACACTGAACTGCCATTTGGGGTCACTACGATGAGGATGGCAATTCAATCTTGATGGAGGGCCATGGGTGGCCCATCTAGTATGTGCAATACCAGCATGGGAGTCAAAAACTTTGGAGTTATCTAGTTGCGACTCCTGGACAAGTTGCTTTAATTTTGCAACCTTTCCAACTTCTTTGAACGCAAAAACTTCATCTTTTTCATCCCCGTCAATTGCGAGCCCGGCACTGTCGTAGCCACGGTATTCCAAGCGAGAGAGACCGTTGACAAGTGTTTCAAGAATGTGTTTGCGATCCTTTTCAATGAGATAATTAATATAGCCAAAGAT
  % decrease =/− SE TP1: 25 ± 6%
  % decrease =/− SE TP2: 24 ± 6%

B5: GS1837: dsRNA trigger SEQ ID NO 199; gene target UDP-glucose: glycoprotein glucosyltransferase 1 (nucleic acid)
DNA: AAAATCTAGGCAAATCCTTGAAAAACTCAGAGCTTTTTTTTTCAATAAAATTCAAGTCAAAAAAATTCAGATCTTTTCGATTTTCAGGAATAATCAATTTATTTCTGCGATTTATCGCTTGATTTAAAAATATACTAGGCACCCAAAAATCTTGACTTCTCACATTTTCTGTCCCAAGGACAATAGTTTGCTGAATTAATTGTAGATCTGTATATATCTGTTGACTCATTTTCTGAAGCCAGAATTCATCTTTCGGTATAACAACGCCATTAATGATAACTGGGGGAACAAGGTCATCTGCACAAATCCTGTCTACCCATTTTTGGGACGATTGAATTCGACTCTCGAGCTCATCTGATTTCAAAACTTCGTCGAAAATTATTCGGGTTTTATTAGTCTTAATTTTTGCTTTCTGGGTGATTTGGTCGAATACATCCTTACTGTTTAAGCTAAGCTTTGATTCATTTTGTGACCGTAAATATGCTATTGCAGTTTGTAATCCATAAATTTCAATAAGGTGATAAATTACTTTTGCTTCGATTGCAGCATTTGAGTTTCTGATGACGGGAATGAGACCAATTCGGAT
  % decrease =/− SE TP1: 15 ± 7%
  % decrease =/− SE TP2: 18 ± 8%

B6: GS1839: dsRNA trigger SEQ ID NO 194; gene target Thioredoxin (nucleic acid)
chain: CTGACCGGGGCGCTATTACGATTAAATGAGCTGTTTTCCCCAGCGCTATAAGCATCCAGGGAGAATAAGGTTACAAAATATAATCCGAAAAAAGATAAAAAAGTATTTATCAATTGTTTCAAATCGAATGGCTTAGACAACTGTGTACTCGGACTCTTAGTACTCCCTAGAGTTCGTCCTTCTGAGGTATATGATAGACCTTCTAGGCCTGCAAGTCTGATGACAGACTCGATAGCAGTTCTTAAAGTAGACTGATCAGCGCCACGGATCGTATTGGCAATAGAGCCAGATCGAAAGATAATGAAGCTGGGAAGTGCTCTAACTCCATAACGCTGAGAAATATCCTGGTGATTGTCTACATTGACCTTGACAAAGGTGATCCTGTTCGGTTTCGAGTATTTGGAAGCAAGACTTTCGAAGGTGGGAGCAATAGCATTACATGGGCCGCACCAGTCGGCATAAACTAACCCAGCCATTAGTAGATTTAGTTAATCGGTGACGACTACTTTTGAAGAGTTCAAAATTTTGTCAAACTGAGATGAGGATCTGATACGGATAGACATGCTTTCTTTCTGTTCAA
  % decrease =/− SE TP1: 20 ± 7%
  % decrease =/− SE TP2: 18 ± 7%

B7: GS1836: dsRNA trigger SEQ ID NO 121; gene target Integral membrane protein/Pth11 homolog (nucleic acid)
DNA: GCTTTTCAATGTCGACCTGCAAACTACCTTTGGCAACAACTTGATTCAAAATTATATTCTGGAAGCTGTTTGAGCAAGGAGAGTATAGCCGATATTATATATGCTCATGCATCTATAAGTTGTTTAATTGACTGGATCTTTGGGATATTACCGATTTTAATTCTCTGGAAACTCGACATGAAGTTCAAGACCAAGCTCTCTATAATGATCGTTCTTTCATTAAGTATAGTAGCCTCTATAGCTACTGTTATACGTATTATTTACCTCCATATTCTTAAGAATGTGTCACAATCCGGTTGGGATGGTTTTGGATTAATAAAATGGTCTTTACTAGAACCAGCCATTGCCTTGACAGCTGCAAATATTGCAACTCTCAGGCCACTTACGCAAAAGTTATTTTCAAAAAAACGACGACCATCTAAATCACAACCACCTAAGCTTTCTCTCAATGCTATTCGGGGCTTAAGTCGGAAGTCTTCAGTATGTTGTTCAAGTGAATTTGCAGATATGTTAGGGCTAGCAGTATCACCTGGCGTGAAAACTCGAGTCTATGCTGATAGAAGACTTGATAACACTATCCAAAAAAGA
  % decrease =/− SE TP1: 23 ± 6%
  % decrease =/− SE TP2: 22 ± 6%

B8: GS1840: dsRNA trigger SEQ ID NO 196; gene target Ubiquitin-conjugating enzyme E2-16 kDa (nucleic acid)
chain: TTGACTCTAGTTTTAAATACACATAAATGTTTGCTCAAACTATCTAGAGATTTTGCGTCTTGTAAAAAAATACTATATATGAAATATTATTGTGTACTATTGATGTATGAACTCGATGTGAGGTTTAAAATCTTATTGCTGCCATAGATAATCAAAAAATTATATTAATCCTATCCTTTTGGAACGATTCCTAATAGCAGATGTGTGTTCGTCTCTGTCCTTTGAATGACTCATTTCAGTCCAAATCTTCGTTGCTAATTCATCCACTCATTTCATAGCATATTTTTTTGTCGCTTTAACCGCCTCTTCATTAAATTCATTCCTGTTATTCCTGTATCTATCTGCTAATGCCGTTTCTACCGCATCATCAAGTACCGGCTCGGTCAGCATTTGCTGCGTTGCCATCAAAATATTGATGATTCGAGATGATGGTTTCCAGGCATCTGGTTTGAGAGCACCAATACACATACTACCCTGCTCATCAAAAGTCACATTTGGATGGTAGATACGAGTTTTGAACGATAGTTTTGGTGGCTTAAAAGGATAGTCTGAGGGGAGCGTTAAAAGAAGTTCAAAGTTA
  % decrease =/− SE TP1: 21 ± 6%
  % decrease =/− SE TP2: 11 ± 10%
